According to patent publication US20070292411A1 (Human Genome Sciences, published 2007):

B1: TR4-Fc fusion protein (Fc fusion)
chain: ATIKLHDQSIGTQQWEHSPLGELCPPGSHRSERPGACNRCTEGVGYTNASNNLFACLPCTACKSDEEERSPCTTTRNTACQCKPGTFRNDNSAEMCRKCSTGCPRGMVKVKDCTPWSDIECVHKESGNGHNI
notes: not shown: Fc region
B2: monoclonal antibody 7.1.3 (antibody, V domains shown)
VH: QVQLVQSGAEVKKPGASVKVSCKASGYTFTNYDINWVRQAPGQGLEWMGISAYTGNTNYAQKLQGRVTMTTDTSTSTAYMELRSLRSDDTAVYYCVRDYHDSNGYYYFDYWGQGTLVTVS
VL: DIQMIQSPLSLPVIPGEPASMSCRSSRSLLHSNGNNYLEWYLQKPGQSPQLLIYLGSNRASGVPDRFSGSGSGTDFTLKISRVEAEDVGIYYCMQGLQLPWTFGGTKVIKR

Columns and labels:
Biotinylated TRAIL [1] = biological target: T1, Biotinylated TRAIL (Homo sapiens (Human), UniProt P50591 114-281, limits assumed, biotinylated (sites not given)); assay: competition ELISA, soluble TR4 (TR4-Fc positive control) competing with captured TR4-Fc for biotinylated TRAIL; assay 2
Experimental: (§1) Goat anti-human Fc was diluted to 0.1 micrograms/ml in coating buffer. The Immulon 4 microplate was coated with 100 microliters per well of the Goat anti-human Fc solution and incubated overnight at 4° C. The coating solution was decanted from the plate, and blocking solution was dispensed at 200 microliters per well. The plate was incubated at room temperature for 1 hour. After the 1 hour incubation period, the blocking solution was decanted from the plate and 1 microgram/mL of TR4-Fc was dispensed at 100 microliters/well and incubated for 2 hours at room temperature. After the incubation, the plate was washed five times manually using a Wheaton manifold.
(§2) Hybridoma supernatants were (previously) prepared in a low binding dilution plate using diluent. The supernatants were prepared in duplicate and were diluted from the stock concentration with 2.5 fold dilutions for the 7 subsequent wells. If a purified form of the antibody was available, the starting concentration was 5 micrograms/mL. The positive control (TR4-Fc) was diluted from 5 micrograms/mL. 100 microliters was transferred into the ELISA plate and pre-incubated for 30 minutes at room temperature. […]
(§3) After the one-hour incubation, the plate was decanted and washed with PBST five times and blotted. […] The plate was immediately read at 450 nm using the spectrometer from Molecular Devices.

Biotinylated TRAIL [2] = biological target: T1, Biotinylated TRAIL; assay: competition ELISA, soluble TR4 (TR4-Fc positive control) competing with captured TR4-Fc for biotinylated TRAIL; assay 1
Experimental: as §1, §2, §3

TR4-Fc fusion protein [3] = biological target: B1; assay: competition ELISA, inhibition of biotinylated TRAIL binding to captured TR4-Fc; assay 1
Experimental: as §1, §2, §3

TR4-Fc fusion protein [4] = biological target: B1; assay: competition ELISA, inhibition of biotinylated TRAIL binding to captured TR4-Fc; assay 2
Experimental: as §1, §2, §3

T1 sequence (P50591 114-281 limits assumed): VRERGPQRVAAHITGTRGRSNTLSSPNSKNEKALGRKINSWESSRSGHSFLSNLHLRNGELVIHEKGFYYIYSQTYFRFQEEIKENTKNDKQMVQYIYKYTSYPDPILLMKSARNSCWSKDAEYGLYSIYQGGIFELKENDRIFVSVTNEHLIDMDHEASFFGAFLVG

Binder	IC50 (Biotinylated TRAIL [1]) [µg/mL]	IC50 (Biotinylated TRAIL [2]) [µg/mL]	IC50 (TR4-Fc fusion protein [3]) [µg/mL]	IC50 (TR4-Fc fusion protein [4]) [µg/mL]
B1	0.284	0.491		
B2			0.152	0.068
